# The nanobody polyreactivity screen of Harvey et al. (2022)
# Experiment: yeast display, Sf9 membrane polyspecificity reagent, FACS + sequencing; frameworks hold sequencing errors
# How it was run: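 Galactose induction of a Saccharomyces cerevisiae BJ5465 synthetic nanobody display library ran 36–48 hours. The cells were then stained for 1 hour at 4 °C with 10% biotinylated, detergent-solubilized Sf9 membrane reagent, pulled down on streptavidin microbeads and FACS-sorted into low and high (top ~1%) gates on expression and reagent-binding fluorescence. Labels for polyreactivity follow the gate of origin.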
row,Sequence,polyreactivity (PSR sort gate)
1,QVQHVESGGGLVQAGGSLRLSCAASGFTFKRNAMGWYRPAPGKERELVAAITWSGGSTYYADSVKGRFTISRDNAKNTVYLQMNSLKPEDTEVYYCAALYRSRYYSGDYWGQGTQVTVSS,high polyreactivity
2,QVQLVESGGGLVQAGGSLRLSCAASGGIFFPNAMGWYRQAPGKERELGAAISWSAGSTYYADSVKGRFTISRDNAKNTVYLQMNSLKPEDTAVYYCAAAGSNYTVWYGYYYWGQGTQVTVSS,low polyreactivity
3,QVQLVESGGGLVQAGGSLRLSCAASGSIFRNNAMGWYRQAPGKERELVASITRRGGSTYYADSVKGRFTISRDNAKNTVYLQMNSLKPEDTAVYYCAATTQHRYKLNYWGQGTQVTVSS,high polyreactivity
4,QVQLVDSWGGLVQAGGSLRLSCAASGSIFTLYDMGWYRQAPGKERELVAAIDWSGGSTRYADSVKGRFTISRDNAKNTVYLQMNSLKPEDTAVYYCAKDLGGRYGRYRYDYWGQGTQVTVSS,high polyreactivity
5,QVQLVESGGGLVQAGGSLRLSCDASGFTFDDYAMGWYRQAHGNEMELVAAISSSRDSTYNADSVKGRFTISRDYEKNTVYLQINSLKPQDTAVYYCAAEYDREEYSGYDYWGEGTQVTVSS,low polyreactivity
6,QVQLVESGGGLVQAGGSLRLSCAASGSIIRRYAMGWYRQAPGKERELVAAISSNGGSTYYADSVKGRFTISRDNAKNTVYLQMNSLKPEDTAVYYCNKLSSYVVARRTTEYDYWGQGTQVTVSS,high polyreactivity
7,QVQLVESGGGLVQAGGSLRLSCAASGSNYYVYPMGWYRQAPGKERELVATISTGGSTYYADSVKGRFTISRDNAKNTVYLQMNSLKPEDTAVYYCNAQITPRYWGGYDSWGQGTQVTVSS,low polyreactivity
8,QVQLVESGGGLVQAGGSLRLSCAPSGIIYRYYGMVWYRQAPGKERELVAVITNSDGSTYYADSVKGRFTISRDNAKNTVYLQQYSLKPEDTAVYYCAARGITSRQRYYWGQGTQVTVSS,low polyreactivity
9,QVQLVESGGGLVQAGGSLRLSCAASGSTFGNYAMGWYRQAPGKERELVAAISVGDGSTYYADSVKGRFTISRDNAKNTVYLQMNSLKPEDTAFYYCAADFVYPSWHYDYWGQGTQVTVSS,high polyreactivity
10,QVQLVESAGGLVQAGGSLRLSCAASGSTFVWYAMGGYRQAPGKERELVDAINFGGTTYYADSVKGRFRISRYNAKNTVYLQLNSLKPEDTAVYYCATEYDYGSWFPDGWGIFDYWGQGTQVTVSS,low polyreactivity
11,QVQLVESGGGLVQAGGSLRLSCAASGSIFLTNVMGWYRQAPGKERELVAAISSGGNTYYADSVKGRFTISRDNAKNTVYLQMNSLKPEDTAVYYCAVRYRYDYWGQGTQVTVSS,high polyreactivity
12,QVQLVESGGGLVQAGGTLRLSCAASGIILSRYAMGWYIQAPGKERELVAAITRTTSTSYADSVKGRFTISRDNAKNTFYLQMNILKTEDTEVYYCAAVHYGGTAYYYWGQGTQVNVSS,high polyreactivity
13,QVQLVESGGGLVQAGGSLRLSCAASGFTFYVNAMGWYRQAPGKEREFVAAISSSGASTRYADSVKGRFTISRDNAKNTVYLQMNSLKPEDTAVYYCAADAPAWILEAYGYWGQGTQVTVSS,low polyreactivity
14,QVQLVESGGGLVQAGGSLRLSCAASGSTFTSYAMGWYRQAPGKERELVAAISKSGGSTYYADSVKGRFTISRDNAKKTVYFQMNSLKPEDTAVYYCAARYNVRSFSTSSFDYWGQGTQVTVSS,low polyreactivity
15,QVQLVESGGGLVQAGGSLRLSCAASGSNFFSNAMGWYRQAPGKERELVAAITSTGGSTYYADSVKGRFTISRDNAKNTVYLQMNSLKPEVTAVYYCAAASRRGYYYWGQGTQVTVSS,high polyreactivity
16,QVQLVESGGGLVQAGGRLRLSCAASGRTFLYYAMGWSRQAPGKERELVAAINWRGTRTYYADSVKGRFTISRDNAQNTVYLQMNSLKPEDTAVYYCNRQGPDFHLRAGQGNYWGQGTQVTVSS,high polyreactivity
17,QVQLVESGGGLVQAGGSLRLSCAASGFTFAANTMGWYRQAPGKERELVADISGRGDRTSYADSVKGRFTISRDNAKNTVYLQMNSLKPEDTSVYYCAVDIYYYSNVHYYYWGQGTQVTVSS,low polyreactivity
18,QVQIVESGGGLVQAGGSLRLSCAASGRIFGPYAMVWYRQAPGKERELVAAIRASSSSTYYADSVKGRFTISRDNAKNTVYLQMNSLKPEDTAVYYCAADWYYGYAWKYGYWGQVTQVTVSS,low polyreactivity
19,QVQLVESGGVLVQAGGSLRLSCAASGSIFVPYAMGWYRQAPGKERELVAAISSGGSTNYADSVKGRFTISRDNAKNTVYLLMNSLKPEDTAVYYCAADRKYFYLWLDQEHRYYWGQGYQVTVSS,low polyreactivity
20,QVQLVESGGGLVQAGGSLRLSCAASGIILTYYAMGWYRPAAGHERELVARISSSGGRTYYADSVKARFTISRDNAKNTLYLQMNSQKPEETAVYYCAAAIVSSGRNDYWGHGTQVTVSS,high polyreactivity
21,QVQLVESGGGLVQAGGSLRLSCAASGSTFNTNAMAWYRHAPGKERELVAAISWSSTRTYYADSVKGRFTISRDNAKNTVYLQMNSLKPEDTAVYYCAAATYQSRYFQRFDYWGQGTQVTVSS,high polyreactivity
22,QVQLEESGGGLVQAGGSLRLSCASYGSIFGHYAMGLYRQAPGKARELVAGISKSGGRTYDADSVKGRFTISRDNAKNTVFLQMNSLKPEDTAVYYCNALVTRYQSLDRLGDYWGQGTQVTVSS,high polyreactivity

row,Sequence,polyreactivity (PSR sort gate)
1,QVQLVESGGGLVQAGGSHRLSCAASRRIFGYNAMGWYRKAPGKERELVAAIRYSGGRTYYADSVKGRFTISRDNAKNTVYLQMNSLKPEDTAVYYCAATAFDKLKVWYYYWGQGTQVTVSS,high polyreactivity
2,QVQLVESGGGLVQAGGSLRLSCAASGSIFVPNAMGWYRQAPGKERELVAAITSGGSTYYADSVKGRFTISRDNAKNTVYLQMNSLKPEDTAVYYCAAEYWLGLYTYDYWGQGTQVTVSS,high polyreactivity
3,QVQLVESGGGLVQAGGRLRLSCAASGRIFPYYAMGWYRQAPGKEREFVAAITSSGGSTYYADSVKGRFTISRDNAKYTVYLQMNSLIPEDSAVYYCFAVRHFGLYAGRPYDYWGQGTQVTVSS,low polyreactivity
4,QVQLVESGGGLVQAGGSLRLSCAASGFIFYYYTMGWYRPAPGKERELVAAISRGGGSTYYADSVKGRFTISRDNAKNTVYLQMNSLKPEDTAVYYCALTDRRLGAHQGDYWGQGTQVTVSS,high polyreactivity
5,QVQLVESGGGIVEAGVSLRLRGAASGGSFKSKAMVWYRQAPGNEREFVAAISSSGGSTYYADSVKGRFTISRDNAKNTVYLLMNILKPEDTAVYYCAADDYGYPYLSYDYWGQGTQVTVSS,high polyreactivity
6,QVQLVESGGGLVQAGGSLRLSCAASGSTFPSYAMGWYRQAPGKERELVAVITSGGRTYYADSVKGRFTISRDNAKNTVYLQMNSLKPEDTAVYYCAARGHRGYQGYDYWGQGTPVTVSS,high polyreactivity
7,QVQLVESGGGLVQAGGSLRLSCAASGTIFKSNSMGWYRQAPGKERELVAAISNGGITNYADSVKGRFTISRDNAKNTVYLQMNSLKPEDTAVYYCATSDVREIWVDYWGQGTQVTVSS,low polyreactivity
8,QVQLVESGGGLVQAGGSLRLSCAASGSTFVFYAMGLYRQAPGKERELVADITSGGRTSYADSVKGRFTISRDNAKNTVYLQMNSLKPEDTAVYYCAALTRWYAWYDYWGQGTQVTVSS,high polyreactivity
9,QVQLVESGGGLVQAGGSLRLSCAASGSIFVRNTMGWYRQAPGKERELVATISSGGRTNYADSVKGRFTISRDNAKNTVYLQMNSLKPEDTAVYYCNRPRWYGGSPYYYWGQGTQVTVSS,high polyreactivity
10,QLQLVESGGGLVQAGGSLSLSCAASGSIFGYNAMGWYRPAPGKEREFVAAISFRGTSTYYADSVKGRFTISRDNAKNPVYLQMYSLKPEDTAVYYCAARSYDGDHYKHGYWGQGTQVTVSS,high polyreactivity
11,QVQLVESGGGLVQAGGSLRLSCDASGSTFSPYAMRWYRQAPGKERELVAAINYSSGSTYYADSVKGRFTISRDNAKNTVYLQMNSLKPEDTAVYYCAYGWYAGYPYDYWGQGTQVTVSS,low polyreactivity
12,QVQLVESGGGLVQAGGSLRLSCAASGFTFYYYAMGWYRQAPGKERELVAAITKNGGRTFYADSVKGRFTISRDNAKNTVYLQMNSLKPEDTAVYYCATVGNWPDYYYWGQGTQVTVSS,high polyreactivity
13,QVQLVESGGGLVQAGGSLRLICAASGFIFPDYTMGWYRHAPGKERELVAAINVSGGSTYYADSVKGRFTISRDHAKNTVYLQMNSLKPEDTAVYYCAAVGGRFVRRSTMDYWGQGTQVTVSS,low polyreactivity
14,QVQLVESGGGLVQAGGSLRLSCAASGSILIYNAMAWYRQAPGKEMQLVAGISRRGASTYYADSVKGRFTISRDMAKNTVYLPMNSLKPEDTAVYYCAALGKYIVAWSGDYWGQGTQVNVSS,low polyreactivity
15,QVQLVESGGGLVQAGGSLRLSCAASGGIFVPNDMGWYRQAPGKERELVAAIRDGGSTNYADSVKGRFTISRDNAKNTVYLQMNSLKPEDTAVYYCAADYSLALAKYDYWGQGTQVTVSS,low polyreactivity
16,QVQLVESGGGLVQAGGSLRLSCAASGSILRIYAMGWYSQAPGKEMELVARITWSGGRTYYADSVKGRFTISRDNAKNTVYLQMNSLKPEDTAVYDCNADLQRWGWEYDYWGQGTQVTVSS,high polyreactivity
17,QVQLVESGGGLVQAGGSLRLSCADSGSTFRANAMGWYRQAPGKERELVAAISQSGGITYYADSVKGRFTISRDNAKNSVYLQMNSLKPEDTAVYYCAAEYWFYYVDSFYYWGQGTQVTVSS,high polyreactivity
18,QVQLVESGGGLVQAGGSLRLSCAASGYIFGQNARGLYRQAPGKERELGASMSDGGSTYYADSVKGRFTISRDNAKNTVYLQLNSLKPEDTAVYYCAAYYSYGSTSHTYTCFDYWGQGTQVTVSS,low polyreactivity
19,QVQLVESGGGLVQAGGSLRLSCAASGSTFYGYAMGWNRQAPGKERELVADIDSIAGSTYYADSVKGRFTISRDNAKNTVYLQMNSLKPEDTAVYYCAARRFDTALVLYDYWGQGTQVTVSS,low polyreactivity
20,QVQVVESGGGLVQEGGSLRLSCSASGRIFGVNAMGWYRKAPGKERELFAAISRSGGSTYYADSVKGRFTISRDNEKNTVYLQMNSLNPEDTAVYYCAAGGRRYDDDYWGQGTQVTVSS,high polyreactivity
21,QVQLVDSGGGLVQAGGSLRLSCAASGYIFHLYGMGWYRQAPGKERELVARISYRGGSTYYADSVKGRFTISRDNAKNTVYLQMHSLKPEDTAVYYCAKDYYKHYYWGQGTQVTVSS,high polyreactivity
